Data from the DeepSol protein solubility set.

assay: soluble on expression in E. coli; label from the status in PepcDB or PDB records

Sequence	soluble on expression in E. coli
GSERVNYKPGMRVLTKMSGFPWWPSMVVTESKMTSVARKSKPKRAGTFYPVIFFPNKEYLWTGSDSLTPLTSEAISQFLEKPKPKTASLIKAYKMAQSTPDLDSLSVPS	soluble
GGWGFLASFAAGIGLRHAEVATLGRASAPAEAQAAAADVREAGQASGAIEYGADRSEHPKVAAGAVMLDVLSFGNLLERSLEVLLVTLLGAMLYQHWDWRA	not soluble
MGSDKIHHHHHHMSAAVERSPEEKRVIPVALSSASVYPLSVHDAFAVAQDLGFDGVEVMVTNNATSQSPHSLLELSHRYRQPIVSIHAPTLLLTQKVWGSAWNKIEMSCRMAREVGCGTVVVHPPFRWQNNYAENFPAGIRQLADMYQVRIAVENMYPWRVRGRETVAYLPHWDPLGQDYDDVTWDFSHAATAGANSVEAIKALGGKLRHIHLTDGSGSGRDEHLIPGRGNQGCAEALQHLAGSGFDGVVVAEISTRRAKFAGERELWLNETLKFARQHLSHPLVGAREA	not soluble
MMNSTNKLSVIIPLYNAGDDFRTCMESLITQTWTALEIIIINDGSTDNSVEIAKYYAENYPHVRLLHQANAGASVARNRGIEVATGKYVAFVDADDEVYPTMYETLMTMALEDDLDVAQCNADWCFRETGETWQSIPTDRLRSTGVLTGPDWLRMGLSSRRWTHVVWMGVYRRDVIVKNNIKFIAGLHHQDIVWTTEFMFNALRARYTEQSLYKYYLHNTSVSRLHRQGNKNLNYQRHYIKITRLLEKLNRNYADKIMIYPEFHQQITYEALRVCHAVRKEPDILTRQRMIAEIFTSGMYKRLITNVRSVKVGYQALLWSFRLWQWRDKTRSHHRITRSAFNLRLEHHHHHH	not soluble
MGSDKIHHHHHHMITVNDMSMQFSDRKLYSDVNLKFTPGNCYGIIGANGAGKSTFLKILEGKLQPTSGNVSISPNERMSSLNQDHYAFEEFTVMNTVIQGYKKLYEVMQAKDALYAKADFTEEDGMKAANLEAEFAEMDGWNAEAEASQLLQQLGIDESLHDSKMSELTEGQRIKVLLGQALFGKPDILILDEPTNGLDPKSISWLEDFLADFPNTVIVVSHDRHFLNSVCTMMCDVDFGKIELFVGNYDFWMESSALAKRLRENANAKKEEQIKELQEFVARFSANASKSKQATSRKKQLDKITLDDIKPSSRKYPFIRFEPARELGNDLVRVDKVSKSIDGVKILDNITFTVRPGEKAAILSQNDLATTVLMQILAGEMEPDSGSVTWGQTTERSYIPRDINSYFEDDRFDILEWLRQYAPKEESDNTFLRGFLGKMLFSGEDVLKNVTKLSGGEKVRCMISKTMLSKANVLILDDPTNHLDLESITALNEGLTSYKSSIIMTSHDHEFIQTIADHIIEVSDKGSVDRAETTYDEFLNHDAIQEQVSKLY	not soluble
MVSGYTQSEIDSIAGWLRAGDSASKAAAKLSTMRGRAVSRNAIIGIVHRNAKLAAIGFGRAKSSPASEGSSTYTPEEIKLVADCLKAKRNYVQIAQRLALKSGRIISRFGVKSLIRRTPELNEIGFRGKKGRPSDKKKAAPGQLPGRLFIAATADIDRDPSAFDYLTRPAVRALASQPHFAAMRFVDCLPARCRAPLSYDLEERPGPDMLCCGHLAMPSRSYCAYHEIRLTARKAEFIAEAALEHHHHHH	soluble
MMINFEAIIGIEVHVVLNTATKMFSPAPNQAQNATPNQFINAIDLGLPGTMPQVNEQAVQKALILADALNMQRVQPVLVFDRKHYFYQDLPKGFQITQQNFPIAQNGYVEIVENNKAQRIIIERFHLEEDTAKQHFVDGQILLDFNRCGAPLIEVVTAPVIKSAKQSKAYLQKLRQILIVNNISNAKLEDGSMRSDCNVSVRLKGQTAFGTKVEIKNINSLNNVEKAIDLEIARQVKALIKGEPVQQVTLTYDDKTNTNVFMRKKDNSVDYRYFIEPNIMSSNIDELLQKPNKAFNLTEFFTKLKEAGVNEQLNQLVVDDLTLFNAYTKINSVINSPQDTIRWLCIELMGQLNKLQKPLKDKTIDHLIILIQMVQKGTVNQKQAKQLIELMLDNGQDPQSLAKLHNLEQITDEKQLTQIIQQIFKENEGEILKNLDRVERIQKLIIGQVMQRTHNRANPQQVFIIVEKLLHDFSERAS	not soluble
MSLANRKYFGTDGVRGKVGAYPITPDFALKLGWAAGKVLASQGSKMVLIGKDTRISGYMLESALEAGLAAAGLSAAFTGPMPTPAIAYLTRTFRAEAGIVISASHNPYYDNGIKFFSAKGTKLPDEIEEAIEAMLEQPMDCVESAELGKASRINDAAGRYIEFCKGTFPAHLGLEGYKIVVDCANGATYHIAPNVLRELGAEVIEIGTDPNGLNINEKCGATDVTALQAKVVETKADVGLAYDGDGDRIMMVDHLGNKVDGDQILFIIAREALRSGQLKGGVVGTLMSNMSLEIALKMLGVPFLRANVGDRYVLEKMVENDWTLGGENSGHIIIADKNTTGDGIVASLAVLAAMAQHKLSLNELASAVKLFPQVLINVRFAGGENPLESDAVKSVAAEVEKRLEGKGRILLRKSGTEPLIRVMVECQDAELAQQCAEEIAEAVKKEGHHHHHH	soluble
MSLIHIAIAEDDFRVAQIHERLIKQLDGFKIIGKAANAKETLALLKEHKADLLLLDIYMPDELGTALIPDIRSRFPEVDIMIITAATETRHLQEALRAGIAHYLIKPVTADKFRQVLLQYKEKRKLLMSQPEVSQSMIDHIFGNGVKTALPAEDLPTGINSITLRKIKEALQTASEGLTAEELGEKMGASRTTARRYAEYLVSKEEARAELEYGIIGRPERKYYLAADEGHHHHHH	soluble
MSNNIVPSSVLPAGENLLTVPDYAERIGQPVTRVFDQIGEHKLICVLDNGIKKIPEAFLSEKGTTNKFVPGVIALLSDGGYTDQEIFKFLFTEDESLPGRPIDAIHGHLAREVMRRAQAMGF	soluble
LHAEGPPSVICIRLLVGLVFLSEGIQKFMYPDQLGPGRFERIGIPAATFFADLDGVVEIVCGTLVLLGLLTRVAAVPLLIDMVGAIVLTKLRALQPGGFLGVEGFWGMAHAARTDLSMLLGLIFLLWSGPGRWSLDRRLSKRATACGAR	not soluble
AYSELQMLSPSERQCVETVVNMGYSYECVLRAMKKKGENIEQILDYLFAH	soluble
MGSDKIHHHHHHMNLKQLEYFMHVAELGSFSKAAMVLDVAQPALSRQVRGLETELRQQLFLRNGRGVALTEAGRRLFDHSVAIMQMVAHAREDLGASRDAPVGRVTIGLPPSIARQLTLPLIDHFKRTLPSARLAIVEGLSSHIIEWVTTGRADVGLVYNPDAQPGIEITPLLQEPLGLVSYAPPSKRRGAAAPLPFKELSKYPLIVPERVHAMRRLLENEAALAGVKLDIAWEVSSVPSIIELVCAGYGHAVLTRSGVAASPRAAELVMRPLIEPAPASALCLVVSATRRPTPLAQHSMRMLTDLVRTLPT	not soluble
MYIPKYFKVTNAEEIWNFVQENSFGTVVTTEQGKPIATHLPLGFNKKDDHYYITGHFAYGNPQWRTFEACEDVLVMFQGPHAYISSSWYSRENVPTWNYQAVHMYGKASMLEKDELAEELTIMLEQKTPTQAFSVLWDKLSPKLLESELKGIVGFKIKVEDIQAAYKLSQNRNETDYMNVIEQLQNEENPNAKQMAELMEDKLKKQI	not soluble
GHMGQSPDAPIADTPGEQQEINLYSSRHYNTDNELYAKFTAETGIKVNLIEGKADELLERIKSEGANSPADVLLTVDLARLWRAEEDGIFQPVQSEILETNVPEYLRSPDGMWFGFTKRARVIMYNKGKVKPEELSTYEELADPKWKGRVIIRSSSNEYNQSLVASLVVADGEESTLAWAKGFVSNFAREPQGNDTAQIEAVSSGEADLTLANTYYMGRLLESEDPAQKAIAENVGVFFPNQEGRGTHVNVSGVGVVKTAPNREGAVKFIEFLVSEPAQAFLAQNNYEYPVLAGVPLNKSVASFGEFKSDTTSLDKLGPALAPATKIMNEAGWK	soluble
ARVNAQTGAPDILTSLDEKSVSYDTVMDKYWLSQYVIARETYDWYTLQKDYETVGMLSSPSEGQSYASQFQGDKALDKQYGSNVRTSVTIVSIVPNGKGIGTVRFAKTTKRTNETGDGETTHWIATIGYQYVNPSLMSESARLTNPLGFNVTSYRVDPEMGVVQ	soluble
MAHHHHHHMRPLASFRGNTQTMLYTPVQDKYSILMEDDKLRVGASSMQGWRSTMEDAHTIHLSLPGLPSHMASEDGAIAAVFDGHCGSKTSQTSAIRILEWITSMEAFGEGNMEKAIRDGFIAGDLAMQRSSPNEMSGCTGNCVLIVENHLYCGNVGDSRAVLCRDGTAIPLSEDHKPNLPRERERVLRAGGYIHNGRVNGVLSLSRALGDFAFKDSDLPPEAQAVTAIPDVVHLELTPQDEFVIIACDGVWDMVTNEKAVEIVRSEVADHSDLSLACERLMDACLSKVSTGAGTDNMTVIILQFKSFFLKKVESRFGAISCNAAE	not soluble
MCECYQFYRMRITQSAQICLSVIKKSQKTGFGPNRLQRKGTHFVGTEPPVLKYHILQDKKPNEEYGLQGTNHELPGTGKVHSKLPTKVHMKKDKVYAWCSCGYSGSQPLCDGSHNSIRIPDLKLKPVRFIPDKDMTVWLCNCKQTNNRPFCDGSHKTVTDEDKKAGLFD	not soluble
MCDCLSIILLVKMKKIYLKFVDFWDGFDTISNFIVDALSIQYEVVLSNEPDYLFYSCFGTSHLEYDCIKIMFIGENIVPDFNVCDYAIGFNYIDFGDRYLRLPLYAIYDGFSNLQNKKIDVNKALDRKFCSIVVSNNKWADPIRETFFKLLSSYKKVDSGGRAWNNIGGPVDNKLDFISQYKFNIAFENSRVLGYTTEKIMEPMQVNSIPVYWGNPLVGKDFNVDSFVNAHDFDSLERLVEYIIELDSSKDKYLEMLEKPWLLDKTYLDWKQLLLNFINNIMMKSYKDAKYLVNYGHAGKYRNEQRFWGRCERKFKLQRIIEYYSQLFDRKLEHHHHHH	not soluble
MSMYTTAQLLAANEKKFKFDPLFLRLFFRESYPFTTEKVYLSQIPGLVNMALYVSPIVSGEVIRSRGGSTSEFTPGYVKPKHEVNPQMTLRRLPDEDPQNLADPAYRRRRIIMQNMRDEELAIAQVEEMQAVSAVLKGKYTMTGEAFDPVEVDMGRSAANNITQSGGTEWSKRDKSTYDPTDDIEAYALNASGVVNIIVFDPKGWALFRSFKAVKEKLDTRRGSNSELETAVKDLGEAVSYKGMYGDTAIVVYSGQYVENDVKKNFLPDNTMVLGNTQARGLRTYGCIQDADAQREGINASARYPKNWVTTGDPAREFTMIQSAPLMLLADPDAFVSVQLA	not soluble
SLPSAQAPSLLNPTDDFAALGNIAWLWMNSPMHRDWPVHLLARNTLAPIQLGQYILLRCNDVPVAYCSWALMDADTELSYVMAPSSLGGNAWNCGDRLWIIDWIAPFSRDDNRALRRALAERHPDSVGRSLRVRRGGDTARVKEYRGRALDAAAARAQLDRYHAELIAGLRASNGGYAPR	soluble
SKQESAAPNTPPTSQSPTPSAQFPRNDGDPQALWIFGYGSLVWRPDFAYSDSRVGFVRGYSRRFWQGDTFHRGSDKMPGRVVTLLEDHEGCTWGVAYQVQGEQVSKALKYLNVREAVLGGYDTKEVTFYPQDAPDQPLKALAYVATPQNPGYLGPAPEEAIATQILACRGFSGHNLEYLLRLADFMQLCGPQAQDEHLAAIVDAVGTMLPCFCPTEQALALV	soluble
MDESVDPVELLLRLLIRHKPHLKPYAYRQDSWQRVLDEYNRQTGSRYRQSRTLKTKFRRLKDLFSADRAQFSPSQLKLMGALLDEAPEHPRPRTKFGNESSSSLSSSSFIKSHPGPDPFQQLSSAEHPNNHSSDDEHSGSQPLPLDSITIGIPPTLHTIPMILSKDNDVGKVIKSPKINKGTNRFSETVLPPQMAAEQSWSDSNMELEICLDYLHNELEVIKKRQEDFECKVLNKLNIIEALLSQMRPPSQGDKI	soluble
KAPNLYMTDTTGTYRYLYDVQAKYTILFFWDSQCGHCQQETPKLYDWWLKNRAKGIQVYAANIERKDEEWLKFIRSKKIGGWLNVRDSKNHTDFKITYDIYATPVLYVLDKNKVIIAKRIGYENLDDFLVQYEKSLKTK	not soluble
